For one substance, luciferase activity, triple transfection of chimera H, I and the pUHC13-3 reporter into 293 cells results are on record in patent US20030162168A1.

The assay has as its target chimera H (HCV NS3 to NS5B-P6' fused to tTA, NS3 active site mutant S1165A, unmodified NS5A/5B junction) (Hepatitis C virus 1b (human serum isolate)). Put plainly: cell-based or functional assay.

In the case of “chimera I (HCV NS3 to NS5B-P6' fused to tTA, NS5A/5B cleavage site P1-P1' mutated to R-P; source of active NS3 protease)”, the luciferase activity, triple transfection of chimera H, I and the pUHC13-3 reporter into 293 cells turned out to be 2e+06 cps.
